This passage reports Kd results from article PMC5459593 (2017).

Test [1] has as its target T1, Notch1(11-12) EGF11-12 (Rattus norvegicus, UniProt Q07008).
T1 chain: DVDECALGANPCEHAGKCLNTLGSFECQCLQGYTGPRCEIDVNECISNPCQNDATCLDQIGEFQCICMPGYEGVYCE
The test is described as follows: SPR. Background: SPR reads the build-up and loss of mass on a sensor chip optically.

Test [2] addresses T2, Notch1(8-12) EGF8-12 (Rattus norvegicus, UniProt Q07008).
T2 chain: LLCLT
As to the kind of experiment: SPR.

B1: DLL4(N-3) N-EGF3 (protein)
chain: SGIFQLRLQEFANERGMLANGRPCEPGCRTFFRICLKHYQATFSEGPCTFGNVSTPVLGTNSFVIRDKNSGSGRNPLQLPFNFTWPGTFSLNIQAWHTPGDDLRPETSPGNSLISQIIIQGSLAVGKNWKSDEQNNTLTRLRYSYRVVCSDNYYGDSCSRLCKKRDDHFGHYECQPDGSLSCLPGWTGKYCDQPICLSGCHEQNGYCSKPDECNCRPGWQGPLCNECIPHNGCRHGTCTIPWQCACDEGWGGLFCDQDLNYCTHHSPCKNGSTCSNSGPRGYTCTCLPGYTGEHCE
The term Kd denotes the free concentration of one partner at which half of the binding sites on the other are occupied at equilibrium, for simple one-to-one binding. A low value points to a tighter complex. In the case of B1, the Kd was found to be 12.8 µM in test [1] and 9.7 µM in test [2].
